From PMC2173498 (The Journal of Cell Biology, 2002)

Target: the molecule itself
Test: SEC

B1: Nucleoplasmin-M9 (other)
chain: MASTVSNTSKLEKPVSLIWGCELNEQDKTFEFKVEDDEEKCEHQLALRTVCLGDKAKDEFNIVEIVTQEEGAEKSVPIATLKPSILPMATMVGIELTPPVTFRLKAGSGPLYISGQHVAMEEDYSWAEEEDEGEAEGEEEEEEEEDQESFGNYNNQSSNFGPMKGGNFGGRSSGPYGGGGQYFAKPRNQGGYG
stoichiometry N: 10
